The test system of series [1] is T1, phiC31 integrase wild-type (Phage phiC31).
T1 sequence: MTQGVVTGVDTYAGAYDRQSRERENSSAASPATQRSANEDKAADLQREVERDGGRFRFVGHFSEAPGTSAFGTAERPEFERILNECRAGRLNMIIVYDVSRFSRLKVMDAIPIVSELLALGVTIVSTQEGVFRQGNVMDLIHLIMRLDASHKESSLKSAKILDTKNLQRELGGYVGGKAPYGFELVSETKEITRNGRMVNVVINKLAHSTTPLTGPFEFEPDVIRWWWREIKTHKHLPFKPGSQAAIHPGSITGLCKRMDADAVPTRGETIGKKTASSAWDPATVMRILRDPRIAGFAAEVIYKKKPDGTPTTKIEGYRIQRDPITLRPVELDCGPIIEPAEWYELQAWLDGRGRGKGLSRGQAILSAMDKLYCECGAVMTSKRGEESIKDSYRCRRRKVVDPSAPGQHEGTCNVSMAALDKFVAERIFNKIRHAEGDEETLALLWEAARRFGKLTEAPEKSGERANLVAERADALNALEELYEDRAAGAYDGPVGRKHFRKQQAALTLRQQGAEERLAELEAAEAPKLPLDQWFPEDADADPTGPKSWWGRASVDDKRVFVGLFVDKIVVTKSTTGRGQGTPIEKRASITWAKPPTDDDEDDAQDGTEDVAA
Put plainly: cell_activity. The note with it: human 293 cells, attB plasmid integration into genome, G418 selection.

The subject of series [2] is T2, phiC31 integrase mutant 1C1 (Phage phiC31).
T2 sequence: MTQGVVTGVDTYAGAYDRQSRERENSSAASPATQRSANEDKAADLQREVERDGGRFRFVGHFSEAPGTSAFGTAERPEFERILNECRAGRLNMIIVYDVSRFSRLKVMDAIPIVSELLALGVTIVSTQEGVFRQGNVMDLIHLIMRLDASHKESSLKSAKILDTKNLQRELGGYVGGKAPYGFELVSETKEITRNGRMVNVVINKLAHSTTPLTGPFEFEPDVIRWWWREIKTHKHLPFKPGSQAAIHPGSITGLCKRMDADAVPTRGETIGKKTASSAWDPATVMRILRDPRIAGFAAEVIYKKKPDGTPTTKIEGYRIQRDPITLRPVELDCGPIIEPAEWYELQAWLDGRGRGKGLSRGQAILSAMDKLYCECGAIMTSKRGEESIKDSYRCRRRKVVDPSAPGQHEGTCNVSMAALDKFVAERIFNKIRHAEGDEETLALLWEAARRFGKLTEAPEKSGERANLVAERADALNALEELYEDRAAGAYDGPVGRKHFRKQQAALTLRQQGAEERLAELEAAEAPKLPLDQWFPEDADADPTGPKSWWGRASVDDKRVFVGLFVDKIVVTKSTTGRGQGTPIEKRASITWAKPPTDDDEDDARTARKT
Put plainly: cell_activity. The note with it: human 293 cells, attB plasmid integration into genome; integration at psiA shown by PCR.

Turning to “CGATGTAGGTCACGGTCTCGAAGCCGCGGTGCGGGTGCCAGGGCGTGCCCTTGGGCTCCCCGGGCGCGTACTCCACCTCACCCATCTGGTCCATCATGATGAACGGGTCGAGGTGGCGGTAGTTGATCCCGGCGAACGCGCGGCGCACCGGGAAGCCCTCGCCCTCGAAACCGCTGGGCGCGGTGGTCACGGTGAGCACGGGACGTGCGACGGCGTCGGCGGGTGCGGATACGCGGGGCAGCGTCAGCGGGTTCTCGACGGTCACGGCGGGCATGTCGA (double strand) [phiC31 attB (full length)]”, the activity (fold colonies over background) in series [1] was over 10. For the same sequence, the integration activity (fold colonies vs wild-type integrase) in series [2] is 2.
